Reference: paper PMC8439657, “Bipartite binding and partial inhibition links DEPTOR and mTOR in a mutually antagonistic embrace” (eLife, 2021)

Molecular target: T1, mTOR FRB domain, residues 2015-2114 (human, UniProt P42345 2015-2114)
T1 construct: mTOR, human, FRB domain, residues 2015-2114; The methods describe the purification of the GST-FRB fusion and mention no TEV cleavage; also called isolated FRB domain; source: E. coli C41(DE3)RIPL, purified (Glutathione-Sepharose, HiTrapQ, Superdex 75)
T1 sequence (P42345 2015-2114): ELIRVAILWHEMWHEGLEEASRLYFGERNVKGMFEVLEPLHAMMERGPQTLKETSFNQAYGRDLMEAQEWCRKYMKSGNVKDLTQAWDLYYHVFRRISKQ
Test: NMR titration; up to 220 µM unlabelled linker-PDZ added to 40 µM 15N-labelled FRB; 1H-15N BEST-TROSY, chemical shift perturbation; 278K, pH 8, 50 mM HEPES, 200 mM NaCl
Details: both partners purified

B1: DEPTOR long-linker-PDZ, residues 228-409 (domain or fragment)
chain: MELLNEKSPSSQETHDSPFCLRKQSHDNRKSTSFMSVSPSKEIKIVSAVRRSSMSSCGSSGYFSSSPTLSSSPPVLCNPKSVLKRPVTSEELLTPGAPYARKTFTIVGDAVGWGFVVRGSKPCHIQAVDPSGPAAAAGMKVCQFVVSVNGLNVLHVDYRTVSNLILTGPRTIVMEVMEELEC
modifications: GST tag left out (TEV-cleavable). pOPL111 states no variant, so the reference sequence is used. The full-length WT clone is the S204/N389 natural variant, so residue 389 of this construct may be N …
Kd: ~500 µM
